Assay results from US9120862 (AbbVie / Abbott, dated 2015).
Bridge positions count the residues as written; N and C are the ends. Ends that are not written are not given here.

B1: monoclonal antibody 3C10 (produced by hybridoma cell line ATCC deposit designation PTA-9638) (antibody, V domains shown)
VH: EVQLVESGGDLVKPGGSLKLSCAASGFTFSSYGMSWVRQTPDKRLEWVATISRGGSSTYYPDSVKGRFTISRDNAKNNLYLQMSSLKSEDTAMYYCASLNYGNFFDYWGQGTTLTVSS
VL: DVVMTQTPLSLPVSLGDQASISCRSSQSLVHSNGNTYLHWYLQKPGQSPKLLIYKVSNRFSGVPDRFSGSGSGTDFTLKISRVEAEDLGVYFCSQNRHVPPTFGGGTKLEIKR

Biological target: T1, Alexa-488 labeled PIVKA-II Gla domain peptide (13-27) (human, disulfide 5-10 (inferred); also: labelled with Alexa Fluor 488 TFP ester, site not given here)
T1 construct: also called Alexa488-PIVKA-II (13-27); Alexa488-PIVKA-II peptide (13-27 cyc)
T1 peptide: LERECVEETCSYEEA
Experiment: fluorescence quenching titration: BHQ-labelled mAb 3C10 titrated against 0.05 nM Alexa488 PIVKA-II peptide (13-27)

| Binder | EC50 (read off the curve) |
| --- | --- |
| B1 | ~0.1 nM |

biological target: B1; experiment: FCS competition: 2 nM Alexa488-PIVKA-II (13-27) premixed with 10 nM mAb 3C10, analog peptide added, overnight; D of the tracer (high D = tracer displaced)

| Binder | Apparent Diffusion Coefficient (D) |
| --- | --- |
| LERECIEELCNKEEA (disulfide 5-10 (inferred)) [13-27 Gla domain PIVKA Protein S peptide] | 50 um^2/sec |
| LEKECYEEICVYEEA (disulfide 5-10 (inferred)) [13-27 Gla domain PIVKA Protein Z peptide] | 51 um^2/sec |
| LERECMEEKCSFEEA (disulfide 5-10 (inferred)) [13-27 Gla domain PIVKA IX peptide] | 48 um^2/sec |
| LERECKEEQCSFEEA (disulfide 5-10 (inferred)) [13-27 Gla domain PIVKA Factor VII peptide] | 49 um^2/sec |
| LERECIEEICDFEEA (disulfide 5-10 (inferred)) [13-27 Gla domain PIVKA Protein C peptide] | 53 um^2/sec |
| LERECMEETCSYEEA (disulfide 5-10 (inferred)) [13-27 Gla domain PIVKA Factor X peptide] | 52 um^2/sec |
